Results taken from paper PMC3834312.

Assays:
Test in all cases: MODified Histone Peptide Array
[1] = molecular target: H2A K13ac (histone peptide array spots containing the mark); details: whole cell lysate from HEK293 cells transiently transfected; ECL plus western blot detecting reagent; read off a plot
[2] = molecular target: H4 R3me2a (histone peptide array spots containing the mark); details: whole cell lysate from HEK293 cells transiently transfected; ECL plus western blot detecting reagent; parent: est. 5.9; read off a plot
[3] = molecular target: H4 K5ac (histone peptide array spots containing the mark); details: whole cell lysate from HEK293 cells transiently transfected; ECL plus western blot detecting reagent; parent: est. 9.4; read off a plot
[4] = molecular target: H2A K9ac (histone peptide array spots containing the mark); details: whole cell lysate from HEK293 cells transiently transfected; ECL plus western blot detecting reagent; read off a plot
[5] = molecular target: H4 K8ac (histone peptide array spots containing the mark); details: whole cell lysate from HEK293 cells transiently transfected; ECL plus western blot detecting reagent; parent: est. 10; read off a plot
[6] = molecular target: H4 R3me2s (histone peptide array spots containing the mark); details: whole cell lysate from HEK293 cells transiently transfected; ECL plus western blot detecting reagent; parent: est. 5.9; read off a plot
[7] = molecular target: H4 R24me2a (histone peptide array spots containing the mark); details: whole cell lysate from HEK293 cells transiently transfected; ECL plus western blot detecting reagent; read off a plot
[8] = molecular target: H4 K12ac (histone peptide array spots containing the mark); details: whole cell lysate from HEK293 cells transiently transfected; ECL plus western blot detecting reagent; parent: est. 8.1; read off a plot
[9] = molecular target: H4 R19me2s (histone peptide array spots containing the mark); details: whole cell lysate from HEK293 cells transiently transfected; ECL plus western blot detecting reagent; read off a plot
[10] = molecular target: H4 S1P (histone peptide array spots containing the mark); details: whole cell lysate from HEK293 cells transiently transfected; ECL plus western blot detecting reagent; parent: est. 5.3; read off a plot

other: Specificity Factor [1]: 4.5
other: Specificity Factor [2]: 6.7
other: Specificity Factor [3]: 11
other: Specificity Factor [4]: 4.4
other: Specificity Factor [5]: 13
other: Specificity Factor [6]: 5.5
other: Specificity Factor [7]: 3.9
other: Specificity Factor [8]: 6.1
other: Specificity Factor [9]: 3.4
other: Specificity Factor [10]: 3.4
Substance: BRD4-SF-FLAG (BRD4 short isoform with a single FLAG epitope tag at the C-terminus) (from UniProt O60885-2) Y433A
